Assay results as given in IntAct's records for PubMed 15350218.

Assays:
syt2_rat Syt2 [1] = target: syt2_rat Syt2 (UniProt P29101)
syt2_rat Syt2 [2] = target: syt2_rat Syt2 (UniProt P29101); remark: listed apart in the source

syt2_rat Syt2, sequence (P29101 whole entry): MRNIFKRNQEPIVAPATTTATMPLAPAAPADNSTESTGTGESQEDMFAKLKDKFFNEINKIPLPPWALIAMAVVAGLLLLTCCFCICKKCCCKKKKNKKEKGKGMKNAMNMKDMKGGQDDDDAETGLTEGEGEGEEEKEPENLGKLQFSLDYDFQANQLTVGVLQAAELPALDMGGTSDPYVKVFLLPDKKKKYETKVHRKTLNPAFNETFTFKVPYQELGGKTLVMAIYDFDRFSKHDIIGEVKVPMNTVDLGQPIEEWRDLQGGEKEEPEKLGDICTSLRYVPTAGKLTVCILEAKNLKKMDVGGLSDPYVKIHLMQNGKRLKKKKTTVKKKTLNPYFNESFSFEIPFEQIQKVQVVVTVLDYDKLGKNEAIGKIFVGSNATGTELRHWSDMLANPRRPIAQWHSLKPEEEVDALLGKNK

Substance | effect of a mutation on the interaction (syt2_rat Syt2 [1]) | effect of a mutation on the interaction (syt2_rat Syt2 [2])
Serine/threonine-protein kinase WNK1 (Rattus norvegicus (Rat)), Q9JIH7 V318D | decreasing interaction | 
Serine/threonine-protein kinase WNK1 (Rattus norvegicus (Rat)), Q9JIH7 V318E |  | decreasing interaction
